In patent publication US20170210823A1 (YEDA RESEARCH AND DEVELOPMENT, published 2017):

Key:
[1] = target: T1, catalytic domain of human LOXL2 (545-775) (human, UniProt Q9Y4K0 545-774); experiment: ELISA; plate coated with the catalytic domain of LOXL2, antibody titrated, detection with peroxidase-conjugated goat anti-mouse antibody
T1 construct: No vector-derived tag is stated; also called recombinant catalytic domain of LOXL2; catalytic fragment
Procedure: (§1) A 96 well plate (Nunc) was coated with LOXL2 or BSA at 5 μg/ml. After the plate was coated, it was incubated with the antibody for 1 h at 25° C. The bound antibody was detected by peroxidase-conjugated antibody goat anti mouse according to standard procedures. The EC₅₀ was calculated from a four-parametric sigmoidal-curve fitting analysis.

[2] = target: T2, human LOXL2 (full length enzyme) (human, UniProt Q9Y4K0 26-774); experiment: microscale thermophoresis in solution; x axis printed as [LOXL2], nM; LOXL2 construct not specified on the sheet or in the legend
T2 construct: also called lysyl-oxidase like protein-2
T2 sequence: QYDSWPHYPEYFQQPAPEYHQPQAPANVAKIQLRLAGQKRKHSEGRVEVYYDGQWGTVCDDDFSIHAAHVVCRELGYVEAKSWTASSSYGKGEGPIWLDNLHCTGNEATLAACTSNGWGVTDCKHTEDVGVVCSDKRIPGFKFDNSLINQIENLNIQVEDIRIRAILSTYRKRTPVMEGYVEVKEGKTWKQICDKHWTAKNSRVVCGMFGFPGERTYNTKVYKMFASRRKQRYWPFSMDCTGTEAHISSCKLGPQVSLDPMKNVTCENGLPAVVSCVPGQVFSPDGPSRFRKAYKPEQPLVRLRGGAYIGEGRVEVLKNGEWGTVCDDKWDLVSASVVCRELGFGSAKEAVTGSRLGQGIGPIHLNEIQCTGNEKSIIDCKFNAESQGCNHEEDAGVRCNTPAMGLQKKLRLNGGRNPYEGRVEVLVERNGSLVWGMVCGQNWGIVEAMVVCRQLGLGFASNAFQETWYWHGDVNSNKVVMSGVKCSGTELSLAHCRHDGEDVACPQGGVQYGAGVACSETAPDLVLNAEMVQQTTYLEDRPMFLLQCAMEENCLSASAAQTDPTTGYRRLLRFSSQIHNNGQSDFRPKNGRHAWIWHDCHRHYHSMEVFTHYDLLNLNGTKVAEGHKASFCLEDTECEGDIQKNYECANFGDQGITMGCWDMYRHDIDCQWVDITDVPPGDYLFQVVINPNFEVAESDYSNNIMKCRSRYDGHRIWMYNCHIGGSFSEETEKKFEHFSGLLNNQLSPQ

[3] = target: T1, catalytic domain of human LOXL2 …; experiment: ELISA; plate coated with the catalytic domain of LOXL2, antibody titrated
Procedure: as §1

B1: GS341 antibody (antibody, V domains shown)
VH: QVQLQQPGAELVRPGASVKLSCKASGYSFTNYWMSWVKQRPGQGLEWIGMIHPSDTDIRLHQKFKDKATLTVDKSSSTAYVQLSSPTSEDSAVYYCARGGQLGPWFAYWGQGTLVTVSA
VL: DIVMTQSPASLAVSLGQRATISCRASKSVSTSGYSYMHWYQQKPGQPPKLLIYLASNLESGVPARFSGSGSGTFTLNIHPVEEEDAATYYCQHSRELPWTFGGGTKLEIKR
notes: also called A341; ab341
Question: For B1, which EC50 [1] is on record?
Answer: 0.35 nM

Question: And the Kd [2]?
Answer: 6.97 nM

Question: What about the “EC50 (read off the curve)” value [3] of the same binder?
Answer: ~0.4 nM
